Consider two molecules from article PMC12746902, “Pathogenic Gαo Mutants Drive Dominant GPCR Coupling in GNAO1 Encephalopathies” (The FASEB Journal, 2025).

Test [1] deals with M2 muscarinic acetylcholine receptor with C-terminal split-YFP fragment YN (M2R-YN) (UniProt P08172).
Test [2] shares this target. This is another data set of the same source.
Test [3] addresses T1, M2 muscarinic acetylcholine receptor with C-terminal split-YFP fragment YN (M2R-YN) (UniProt P08172 1-466).
T1 sequence (looked up): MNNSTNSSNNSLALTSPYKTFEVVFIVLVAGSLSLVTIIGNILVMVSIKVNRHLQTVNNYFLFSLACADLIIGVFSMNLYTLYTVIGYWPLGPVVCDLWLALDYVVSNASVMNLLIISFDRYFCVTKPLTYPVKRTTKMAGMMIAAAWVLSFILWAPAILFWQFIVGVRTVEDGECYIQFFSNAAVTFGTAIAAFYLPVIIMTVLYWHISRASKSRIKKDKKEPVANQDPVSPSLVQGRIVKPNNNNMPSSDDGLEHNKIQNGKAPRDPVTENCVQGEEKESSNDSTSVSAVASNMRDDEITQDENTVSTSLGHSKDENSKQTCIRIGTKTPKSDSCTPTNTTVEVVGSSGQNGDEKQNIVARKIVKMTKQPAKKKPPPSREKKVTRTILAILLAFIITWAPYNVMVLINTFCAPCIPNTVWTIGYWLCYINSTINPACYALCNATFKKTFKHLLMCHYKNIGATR
The experiment in a line: cell-based or functional assay.

“Gαo ins4A (four-alanine insertion in the C-terminal α5-helix) with internal split-YFP fragment YC at Gly92 (from UniProt P09471 1-354) (natural protein)” yielded a reduction of ACh-mediated phosphorylation (pT307/pS309 relative to total receptor) of immunoprecipitated GFP-M2R with co-expressed UNTAGGED Gαo ins4A, 100 μM ACh for 5 min in test [1] of 95%. Further, the reduction of ACh-mediated M2R phosphorylation (pT307/pS309 relative to total M2R) in immunoprecipitated split-YFP complexes, 100 μM ACh for 5 min in test [2] is over 90%.

B1: Gαo T241_N242insPQ with internal split-YFP fragment YC at Gly92 (natural protein, UniProt P09471 1-354, looked up)
chain: MGCTLSAEERAALERSKAIEKNLKEDGISAAKDVKLLLLGAGESGKSTIVKQMKIIHEDGFSGEDVKQYKPVVYSNTIQSLAAIVRAMDTLGIEYGDKERKADAKMVCDVVSRMEDTEPFSAELLSAMMRLWGDSGIQECFNRSREYQLNDSAKYYLDSLDRIGAADYQPTEQDILRTRVKTTGIVETHFTFKNLHFRLFDVGGQRSERKKWIHCFEDVTAIIFCVALSGYDQVLHEDETTPQNRMHESLMLFDSICNNKFFIDTSIILFLNKKDLFGEKIKKSPLTICFPEYTGPNTYEDAAAYIQAQFESKNRSPNKEIYCHMTCATDTNNIQVVFDAVTDIIIANNLRGCGLY
As to B1, in test [3], the “reduction of ACh-mediated phosphorylation (pT307/pS309 relative to total receptor) of immunoprecipitated GFP-M2R with co-expressed UNTAGGED Gαo insPQ, 100 μM ACh for 5 min” value was determined as 30%.
